Literature values as cited in US9938510B2, “Photobacterium sp. alpha-2-6-sialyltransferase variants” (The Regents of the University of California, priority 2014, dated 2018).

Details: earlier reports (Ding 2011; Sun 2008); cited from earlier work

B1: Psp26ST(15-501)-His6: recombinant Photobacterium sp. JH-ISH-224 α2-6-sialyltransferase, residues 15-501, C-terminal His6, wild-type; SEQ ID NO: 23 (protein)
chain: CNNSEENTQSIIKNDINKTIIDEEYVNLEPINQSNISFTKHSWVQTCGTQQLLTEQNKESISLSVVAPRLDDDEKYCFDFNGVSNKGEKYITKVTLNVVAPSLEVYVDHASLPTLQQLMDIIKSEEENPTAQRYIAWGRIVPTDEQMKELNITSFALINNHTPADLVQEIVKQAQTKHRLNVKLSSNTAHSFDNLVPILKELNSFNNVTVTNIDLYDDGSAEYVNLYNWRDTLNKTDNLKIGKDYLEDVINGINEDTSNTGTSSVYNWQKLYPANYHFLRKDYLTLEPSLHELRDYIGDSLKQMQWDGFKKFNSKQQELFLSIVNFDKQKLQNEYNSSNLPNFVFTGTTVWAGNHEREYYAKQQINVINNAINESSPHYLGNSYDLFFKGHPGGGIINTLIMQNYPSMVDIPSKISFEVLMMTDMLPDAVAGIASSLYFTIPAEKIKFIVFTSTETITDRETALRSPLVQVMIKLGIVKEENVLFWA
modifications: C-terminal His6; Synthetic Psp26ST(15-501) WILD TYPE
Q: With B1 as the molecule, how does the “expression level of soluble protein” value read?
A: The value was 25 mg/L.
